Laboratory results reported in patent publication US5858646.

Biological target: uncleaved ~95 kD pol gene product of recombinant AcNPV-HIVYKpol (HIV-1 pol polypeptide lacking the first 91 amino acids at the NH2-terminus of the HIV-pol protease) (HIV-1)
Assay: ELISA on plates coated with pol, no primary antibody, read at 450 nm

Q: “goat anti-human Ig linked to horse radish peroxidase (Tago Diagnostics, cat 2393) (tool reagent)” was tested. Which OD did it give?
A: Its OD is under 0.1 OD.
